# B1: GST-Z2 (GST fused to the Z2 domain of RIP60, zinc fingers 6-8 plus 37 amino acids of the proline rich region) (other)
# chain: GGDAVDRPFQCACCGKRFRHKPNLIAHRRVHTGERPHQCPECGKRFTNKPYLTSHRRIHTGEKPYPCKECGRRFRHKPNLLSHSKIHKRSEGSAQAAPGPGSPQLPAGPQESAAEPTPAVPLKPAQ
# notes: Expressed in E. coli BL21 and purified on glutathione beads; also called GST-Z2(P12); GST-Z2-P12; not shown: glutathione-S-transferase (GST) purification tag, 26 kD, at the amino terminus; from vector pGEX-2T
# B2: GST-Z23 (GST fused to hands Z2 and Z3 of RIP60) (other)
# chain: PRPGGDAVDRPFQCACCGKRFRHKPNLIAHRRVHTGERPHQCPECGKRFTNKPYLTSHRRIHTGEKPYPCKECGRRFRHKPNLLSHSKIHKRSEGSAQAAPGPGSPQLPAGPQESAAEPTPAVPLKPAQEPPPGAPPEHPQDPIEAPPSLYSCDDCGRSFRLERFLRAHQRHDTGERPFTCAECGKNFGKKTHLVAHSPVHSGERPFACEECGRRFSQGSHLAAHRPDHAPDRPFVCPDCGKAFRHKPYLARHRRIHTGEKPYVCPDCGKAFSQKSNLVSHRRIHTGERPYACPDCDRSFSQKSNLITHRKSHIRDGAFCCAICGQTFDDEERLLAHQKKHDV
# notes: The start of the range is derived from the domain limits; nucleotide 682 would give residue 228; also called pCH61 product; not shown: glutathione-S-transferase (GST) purification tag from vector pGEX-2T
# Experiments:
# [1] = target: the molecule itself; assay: gel shift multimers on DNA probe (self-association on DNA)
# [2] = target: the molecule itself; assay: DNase I footprinting on the DHFR-E probe (self-association on DNA, inferred)
# Excerpt: Materials and Methods: Probe DHFR-E-top was generated by digesting pUC/E with Bam HI, end-labeling by Klenow fill-in in the presence of [α-^32P]-dATP, and digesting with Bgl II. Probe DHFR-E-bottom was generated by digesting pUC/E with Bgl II, end-labeling by Klenow fill-in in the presence of [α-^32P]-dATP, and digesting with Bam HI. Footprinting probes were purified by gel electrophoresis and Geneclean (Bio 101), and resuspended in distilled water at a specific activity of 50,000 dpm/ul. Binding reactions (50 ul) that contained 50,000 dpm of labeled probe were assembled as for gel mobility shift assays. After incubation at 37° C. for 20 min and on ice for 15 min, one volume of a 5 mM CaCl_2, 10 mM MgCl2 solution was added for one minute at room temperature, followed by the addition of 0.02 units of DNase I for 1 min. Footprinting reactions were stopped with the addition of 90 ul prewarmed stop buffer (200 mM NaCl, 30 mM EDTA, 1% SDS), extracted with phenol, ethanol precipitated, and resuspended in sequencing dye buffer. Samples were resolved by electrophoresis at 65 W for 1.5 to 3.0 hours on denaturing 8% polyacrylamide gels. The gel was dried, exposed to Kodak XAR film at –80° C., and signals were detected by autoradiography.
# Fusion proteins containing hand Z2 induced multiple hypersensitive sites on the top strand of DHFR-E, including the prominent site at position 3483.
Protein,binding result [1],binding result [2]
B1,binds,–
B2,–,binds

# Reference: US6780986 (UNIVERSITY OF VERMONT AND STATE AGRICULTURAL COLLEGE, dated 2004)
